Results: article PMC5916938
Several values for one entry are separate records, joined by “and”; a condition that tells them apart may be missing. Equal entries are not always repeated.

Molecular target: porcine brain tubulin (alpha/beta heterodimer), as paclitaxel-stabilised microtubule lattice (straight tubulin) or as curved tubulin protofilaments (porcine) (UniProt P02550)
Test: cryo-EM 2D class averages; CTNM AMP-PNP: 15 uM KLP10A NM with 3 uM polymerized tubulin in BRB80, 5 mM AMPPNP, 5 mM MgCl2, 20 uM paclitaxel, 5 min at room temperature; ring-like curved tubulin complexes not wrapped around microtubules, aligned and classified in 2D
Settings: scale: KLP10A motor domain per tubulin heterodimer

Sequence of UniProt P02550 (P02550 whole entry, chain 1 of 2): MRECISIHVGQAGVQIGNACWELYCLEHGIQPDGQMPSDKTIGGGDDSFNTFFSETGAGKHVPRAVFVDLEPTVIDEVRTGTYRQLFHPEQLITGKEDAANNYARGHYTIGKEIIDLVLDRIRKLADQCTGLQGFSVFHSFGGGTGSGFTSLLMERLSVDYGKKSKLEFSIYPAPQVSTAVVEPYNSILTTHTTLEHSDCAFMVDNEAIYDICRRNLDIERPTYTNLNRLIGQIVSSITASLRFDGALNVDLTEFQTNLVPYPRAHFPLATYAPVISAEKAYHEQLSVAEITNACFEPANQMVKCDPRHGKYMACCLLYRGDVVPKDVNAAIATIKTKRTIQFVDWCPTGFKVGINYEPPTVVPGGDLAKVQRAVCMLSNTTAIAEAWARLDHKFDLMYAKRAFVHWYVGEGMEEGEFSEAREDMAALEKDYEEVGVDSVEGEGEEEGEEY
Sequence of UniProt P02550 (P02554 1-439, chain 2 of 2, further chain): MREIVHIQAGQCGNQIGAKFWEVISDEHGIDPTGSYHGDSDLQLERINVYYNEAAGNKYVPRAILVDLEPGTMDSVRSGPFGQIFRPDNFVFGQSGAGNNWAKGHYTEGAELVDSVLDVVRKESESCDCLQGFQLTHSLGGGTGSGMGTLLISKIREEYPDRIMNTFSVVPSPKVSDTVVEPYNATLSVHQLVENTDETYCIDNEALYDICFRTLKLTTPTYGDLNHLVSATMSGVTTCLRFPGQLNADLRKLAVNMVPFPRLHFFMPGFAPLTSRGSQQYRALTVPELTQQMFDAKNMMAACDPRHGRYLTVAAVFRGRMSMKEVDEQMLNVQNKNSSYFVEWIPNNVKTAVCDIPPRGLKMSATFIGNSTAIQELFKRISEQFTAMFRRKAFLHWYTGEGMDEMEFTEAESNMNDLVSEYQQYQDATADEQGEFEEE

stoichiometry N: 1 and 0.5
Substance: Drosophila melanogaster kinesin-13 KLP10A neck motor construct (NM), residues 198-615 (from UniProt Q960Z0 198-615) (domain or fragment)
